Assay: Thioflavin T (ThT) fibrillation assay
Type: physicochemical
Details: 7 mM sodium phosphate pH 7.4, 1 μM ThT, 37℃, orbital shaking 960 rpm

Substance | ThT fibrillation lag time | Fibrillation within the 45-hour experiment (ThT fluorescence) (45 h)
ヒトインスリン: Human insulin hormone (prior art), 21-residue A chain and 30-residue B chain; used as the reference | < 2 時間 | 
A10C, B4C, desB30ヒトインスリン [実施例4] |  | 細線維化しなかった

Source: patent publication JP2013532970A, “追加のジスルフィド結合を含有するヒトインスリン” (ノヴォ ノルディスク アー/エス, priority 2010, dated 2011)
